Measurements from PMC8022922.

Target: AfMAT1-1-1_(78–235) (Aspergillus fumigatus)
Experiment: SEC

“AfMAT1-1-1_(78–235) (domain or fragment)” showed a stoichiometry N of 2.
